{"source": "paper PMC5083789", "target": "Pure recombinant PlmA (Synechococcus elongatus PCC7942)", "test": "SEC; 0.1 mg pure PlmA in 0.1 ml on Superdex 200 10/300 GL, 0.3 ml/min, 50 mM Hepes pH 7.5, 0.5 M NaCl, 1 mM 2-mercaptoethanol; calibrated with protein standards"}
{"substance": "Pure recombinant PlmA (natural protein)", "values": [{"measurement": "stoichiometry N", "result": 2}]}
